In article PMC11012335:

Assays:
[1] = biological target: Hfq WT (Escherichia coli K-12 MG1655) (UniProt P0A6X3); assay: EMSA; conditions: EMSA: 20 mM Tris-HCl pH 7.6, 0.5 M NaCl, 1 mM EDTA, 1% glycerol, 20 min at 25 C, native PAGE in 0.5x TBE at 4 C
[2] = biological target: Hfq WT (Escherichia coli K-12 MG1655) (UniProt P0A6X3); assay: competition; conditions: EMSA: 20 mM Tris-HCl pH 7.6, 0.5 M NaCl, 1 mM EDTA, 1% glycerol, 20 min at 25 C; native PAGE in 0.5x TBE at 4 C

| Substance | K half ([1]; Hfq monomer, K1 (first shift)) [nM] | binding [2] | K half [1] [nM] | binding signal ([1]; 347.5 nM Hfq monomer) [% bound] |
| --- | --- | --- | --- | --- |
| DsrA | 122 |  |  |  |
| GGGAACACAUCAGAUUUCCUGGUGUAACGAAUUUUUUAAGUGCUUCUUGCUUAAGCAAGUUUCAUCCCGACCCCCUCAGGGUCGGGAUUU [DsrA] |  | binds | 122 |  |
| RNA I FL | 225 |  |  | 72.1 |
